From the DeepSol protein solubility set

Assay: soluble on expression in E. coli; label from the status in PepcDB or PDB records

| Sequence | soluble on expression in E. coli |
| --- | --- |
| MGHHHHHHSHMSKAIKQNLADSKKMSAELFCLTYGAMVTEMLKDYEDPKDVTIQLDKMGFNMGTRLADDFLAKNANVPRCVDTRQIADVLCRNAIPCYLGISATASSWTSGDREFTITLEANPLTELVQVPAHLVSAGLSYSQLIAGAIRGALEAVHFKVYASATDTGANTEIRIRFDQVLKDSLPAGEDD | soluble |
| MGHHHHHHSHMSWWDYGYQIAGMANRTTLVDNNTWNNSHIALVGKAMSSNETAAYKIMRTLDVDYVLVIFGGVIGYSGDDINKFLWMVRIAEGEHPKDIRESDYFTPQGEFRVDKAGSPTLLNCLMYKMSYYRFGEMQLDFRTPPGFDRTRNAEIGNKDIKFKHLEEAFTSEHWLVRIYKVKAPDNRETLDHKPRVTNIFPKQKYLSKKTTKRKRGYIKNKLVFKKGKKIFKKTV | not soluble |
| MGHHHHHHSHMTLRCLEPSGNGGEGTRSQWGTAGSAEEPSPQAARLAKALRELGQTGWYWGSMTVNEAKEKLKEAPEGTFLIRDSSHSDYLLTISVKTSAGPTNLRIEYQDGKFRLDSIICVKSKLKQFDSVVHLIDYYVQMCKDKRTGPEAPRNGTVHLYLTKPLYTSAPSLQHLCRLTINKCTGAIWGLPLPTRLKDYLEEYKFQV | not soluble |
| MGHHHHHHSHMVSSNFWFKYPKTCSKVEHFVSILGKCFESPWTTKALSETACEDSEENKQRITGAQTLPKHVSTSSDEGSPSASTPMINKTGFKFSAEKPVIEVPSMTILDKKDGEQAKALFEKVRKFRAHVEDSDLIYKLYVVQTASPFPNQ | not soluble |
| MGHHHHHHSHMWKVVNLPTDLFNSVMNVGRFTEEIEWLKFLALACSALGVTITKTLKIVCEVLSCDHNGGLPRIPFSTFQFLYTYIAEVDGEICASHVSRMLNYIEQEVIGPDGLITVNDFTQNPRVWLE | not soluble |
| MGHHHHHHSHMYLRHDKPPYTYLAMIALVIQAAPSRRLKLAQIIRQVQAVFPFFREDYEGWKDSIRHNLSSNRCFRKVPKDPAKPQAKGNFWAVDVSLIPAEALRLQNTALCRRWQNGG | soluble |
| MGHHHHHHSHRSSDCPYIVQFYGALFREGDCWICMELMSTSFDKFYKYVYSVLDDVIPEEILGKITLATVKALNHLKENLKIIHRDIKPSNILLDRSGNIKLCDFGISGQLVDSIAKTRDAGCRPYMAPERIDPSASRQGYDVRSDVWSLGITLYELATGRFPYPKWNSVFDQLTQVVKGDPPQLS | not soluble |
| MGHHHHHHSHVFKIEDKIGEGTFSSVYLATAQLQVGPEEKIALKHLIPTSHPIRIAAELQCLTVAGGQDNVMGVKYCFRKNDHVVIAMPYLEHESFLDILNSLSFQEVREYMLNLFKALKRIHQFGIVHRDVKPSNFLYNRRLKKYALVDFGLAQGTHDTKIELLKFVQSEAQQERCSQNKSHIITGNKIPLSGPVPKELDQQSTTKASVKRPYTNAQIQIKQGKDGKEGSVGLSVQRSVFGERNFNIHSSISHESPAVKLMKQSKTVDVLSRKLATKKKAISTKVMNSAVMRKTASSCPASLTCDCYATDKVCSICLSRRQQVAPRAGTPGFRAPEVLTKCPNQTTAIDMWSAGVIFLSLLSGRYPFYKASDDLTALAQIMTIRGSRETIQAAKTFGKSILCSKEVPAQDLRKLCERLRGMDSSTPKLTSDIQGHASHQPAISEKTDHKASC | soluble |
| MGHHHHHHSHVGFDTGFMQFFRVREKSMTMAELLIGSRKTYGLNLIGGVRRDILKEQRLQTLKLVREMRADVSELVEMLLATPNMEQRTQGIGILDRQIARDLRFDHPYADYGNIPKTLFTFTGGDVFSRVMVRVKETFDSLAMLEFALDNMPDTPLLTEGFSYKPHAFALGFVEAPRGEDVHWSMLGDNQKLFRWRCRAATYANWPVLRYMLRGNTVSDAPLIIGSLDPCYSCTDR | not soluble |
| MGITSAGMQSRDAECGERIFTRTVRQVKQQTTVHYFVSPPRPPVKTNPQAKTLISTRLEVATRKKRRVLFILEHHHHHH | not soluble |
| MGKFFFFGFVGLLLSWGALYYRYSDEKNTSARKYRFDPPPALVGNLFINAGLEKAEHILDGKIVGPESMVVDDEAIYVSVNDAKVLKIVDGRVVSKASYSEKSKFFPDCGHFDTEPECGRPLGIRRLVAGKPKFVVCDAYLGVYIVDFTDEQNPISTQILDSKVPIDGLKPRFLNDLDVISEDELIISDSSTRHDRRHFMAAILEHQADGRIFHLKISTKSVKVLADKLYFPNGIQLTEDKKSVIFAECSMARIKKLTIASKKVEMFAANLPGLPDNIRSSGRGTYWVGLTATRSATHPSLLDRLGSLPGIRQFLVDIVPGPYWKPLLGLFKNPHSIIIELDSVGKIVRSLHDVTGKHVGDASQVTEHNGHLYIGSFADHYIAKVKL | not soluble |
| MGKFMMEKFVQTVSSVNYNKGVFSLYFVGQDQKNMAHGVMAESDNDLELKQVVHMPASGFMYMVSMIKNMLEDPRMEAEFNKLVAAGFLPAGDATANSAEDAAAEEKTAAKKRPAQVKK | not soluble |
| MGKKNEKIVEEAEKVEAETMEVDEQPQETPQVDDEEDLNVPSKKKMEILDPKSFEQDPSNLTLIMYEEDHTIGNSIKHILSRMDEVEFCGYNVPHPLEDKILFRVQTKDGINALEVLAKAFESVEQIFSTIRGKFEESYEQSQS | soluble |
| MGKRFSSFQAAQIRIARPTGQLDEIIRFYEEGLCLKRIGEFSQHNGYDGVMFGLPHADYHLEFTQYEGGSTAPVPHPDSLLVFYVPNAVELAAITSKLKHMGYQEVESENPYWSNGGVTIEDPDGWRIVFMNSKGISGK | soluble |
| MGKSSNIVFDRIKEERQMLSFFKIFQRADLSSDCMRALPYSFISKVSEKDFSYKMVIRAQWGKTWDVEVSKNPTYYYIETRGWDLFVSDNALGQNEFITFTHRGNMVFHVNIYEQNGLEMRKPRKFQTMGPSSGIKKEEGENSLIDVKKEEESDESPGRAEFLVRKKKTEDSKSSKKKMTRNKVKKKSKSKSKQVLDGVPEFKITIRKSYLKFLAIPKHFVDDHIPNKSKIFTIRHPNGGSWKVLCLVREIRTIFSGGYSKLAREFPLMVGDKCTFKLIKPFEFVLLTSKKNREKMDQCMID | soluble |
| MGKVLIIGAGGVGTVVAKKVAMNTDVFTEIMLASRTRSKCDKIASEIKNVRIQTAQVDADNVEELVALFESFKPELVINVALPYQDLTIMDACLRCGVNYLDTANYEPLDEAKYEYSWQWAYQDRFRK | not soluble |
| MGKYKFIEERVETMSSSELKIFLNILKSRSKELMSTLESVRGIKDLEAVCKSTQKLNNRVSEFDGGSFLILVVGPVKSGKSTLVNLIAHAHVSPTHFLECTVRPSIISKGQEESITRIFSVADKARKVEQFDSVIDSLRGFEKLENISEISIEKKELNDANLEECVSLALEESVINTDHTLVTSITTSGGELLKDNIFLVDMPGLDGGYVNLDNPIYETISQRADFVIFVQSSNSAISKVSNRFLKLLQENNPKVPVCLLHNVFEAAYWHSEEEKQAVIKAQVEFAENEMGRRNFQLKENIYSLNLGKVADAASYEGMEDLQEEAAKFQRFEKDLYGKVISNSTDIRLRSVIGRTLNQLEKLDNLVGESIGQQEAIDIEYQAAATSFDELLRQASELSYDGSDFRKMVQVYMDDDLKEFTEIVREYYDSGCNSAFAGGAKGKDATRSLVTKFMTDSSAAIKSKFLDSHEHSLARQYLRKLSNLKDDVAFIEKMNTFLKQKGCAPFDSVPQVTDFPVVDFDLQGAFDVKNINNPTVPHIGIPNPFGTYSTMEIQSFLRKAMECITGIDHTHTGKTIKGYLQLTVGKSIYKAANDLYDQYVPVRKQSIIDFLEQQKTMYLNALVSDKEEFDRKDALLRSINAQVQSFKDSIR | not soluble |
| MGLCMMRTLQSAPSSPLAMPEIQFCLLPDACRPLLGKFYREHQSSMRAASKGQAWVAKQEEIIGALCLTPVADGHWLTGLFVAPPLRGNAVAQRLIDAALLPLSGPVWLFCHPDLQGFYRLAGFETAQRLPQALGERLMRYSRSKPLVALHREA | not soluble |
| MGLFFAQNMMYNHTITVYDRNYELVKVIPDEVDLSKYGHSRFKGKYRGAPVEASFSHNGKYAWISNYQMYGPGFNNPGSDKCHPSQKTDKSFLYRINTETLKIDRVIPVGSVPKFVATSTDENLILVSNWCSWDLSVVDINQNQEIKRIKLGPYPRGIVVDPASETAYVAVMGSYNIAKVNLRDFSVQWLRNIGSSPRHLNIDPAGKYLYASLNGEGKIAKISLPQGNLVKKIATGNAPRSMVLSANGQTLYVVNYGEDTVSKVRTSDMKVLQKVKVEPDPIGITYDPQTREVWVACYSGNIMIFQDLEHHHHHH | soluble |
| MGLSDEQLGKIVRFHLKEDKQAHERIKQKMMESMKAFRKAVGEPATDDETLRKLGQAHIDSFNEMVKYHIDERKAVRSILTPEQIGKLEHHHHHH | not soluble |
| MGLVDYAGSESESDEEMETQQKNSLAPQNQQLVDDEAFFDNTEKSSSPNMNKEDVLEELVKPKEWEVKLAEKARRKLEKKALKKAQKEERKKEKKLAKKAMKVEKIPKIGGGIQKAKGKVIISAFGALAGITGENSSDDSDNEGAAVATVKPKLGNSFLSNLPAPKGRDNRSDGANVFDKSMVPHSVSKKATPAAAPVFKPAPAPKLPDDSDDDDDGPTDFFGFSSAPTRKESEIPSEIPYMTMNSSMDVVGPSRPDEGMDPRQMYEMPEEEEDVQEGPSASNAWLHRKINDEQAHKLLMRFSHDIGQEERRSINEMANSIVDVNVDDALGPDVKTNIIKNLGHRAFVEATSAPLPQVQTQGQMSRRKHQITYLASLAVSREEQLKDQWADQKQSKRMARQKYGF | not soluble |
| MGMTPAQEVISYLINAAIGVSSTSSRPFRDAPPGCPDTLLVQCVKWFFRNGDFSNFYEDIKYLVKGKSLAGFVNSHLMVCPELIRIIVENADNKSRRVKFLIKKDEFAICVGRGRLITFPFTKDMEEPACILAEYTELLFSFPHYDIEYSFEGSYGLSRNMDLTETHIMLLSKLTPSMFAEKARPRRVRERNGRLAVRMSRISWNRSGLYYNAIIQFFESLRGTVITQGEQPLCEKSVTYQEMLKHTLAHPGVHQLDSRPNFQWKISMRKTRKND | not soluble |
| MGNCLSTSDPSHEDVSKKLPKALPVDAAFKFPSPLPTFTRGDGFAKGTIDLGGGLEVSQVSTFNKVWSTYEGGPDNLGATFFEPSSIPSGFSILGYYAQPNNRNLFGWVLTARDLSSNTLKPPVDYTLVGNTESLKIKQDGTGYFWQPVPPDGYQAVGLIVTNYSQKPPLDKLRCIRSDLTEQCEADTWIWGTNGVNISNLKPTTRGTQATGVYVGTFTWQTQNSSPPSLSCLKNTKLDFSTMPNGSQIEELFQTFSPCIYFHPDEEYLPSSVTWYFNNGALLYKKGEESKPIPIESNGSNLPQGGSNDGSYWLDLPIDKNGKERVKKGDLQSTKVYLHIKPMLGATFTDISIWIFYPFNGPAKAKVKFVNLPLGRIGEHIGDWEHTTLRISNFTGELWRVFLSQHSGGIWIDACDLEFQDGGNNKFVAYASLHGHAMYPKPGLVLQGDDGVGIRNDTGKGKKVLDTGLGYEVIAAEYDGGGVVEPPWVKYFRKWGPKIDYNVDDEVKSVERILPGLLKKAFVKFVKKIPDEVYGEDGPTGPKLKSNWAGDES | not soluble |
| MGNMFGSSLASLFFLWATIQQIFPNHLKIAIKEFFLSTIQQISFAKRFSDKFINFFSPYVQINFSEYEDYRVNHAFDPIETYLGAKATDKAKHLRASQVRESKGLVLKRDETKVRDEYEGIRVWWEMETDSAGYKTLKLTFHRRSRDIVTNSYIKYVVEEGKSIDAKNKKMKLFTNNPSSHWGSSKTSFWRYIDFEHPATFETLAMDPKKKEQILNDLAAFNNGKDYYKKIGKAWKRGYLLYGPPGTGKSTMIAAMANLLNYSIYDLELTAIQNNSELRKILTATSNKSIIVIEDIDCSLDLTGKRKKKESNLMIWRKDGDQDNEENKSFVTLSGLLNFIDGIWSACGQERIIVFTTNHLAKLDPALIRRGRMDMHIELSYCTFEAFKTLAKNYLDLDSHPLFSKIESLMKETNIAPADVAENLMKKNRETDADGSLNDLIESLERKKKVQIAQVDEHKEYSNKIVEAFRKLF | soluble |
